The text below walks through data of paper PMC6739812 (Protein Science : A Publication of the Protein Society, 2019).

This data set concerns the molecule itself. In words: SEC-MALS. A general note: Size exclusion chromatography separates by hydrodynamic size, large species first.

B1: InvCΔ79 (Salmonella T3SS ATPase InvC lacking the first 79 residues, with C-terminal Strep-tag) (domain or fragment, Salmonella typhimurium, UniProt P0A1B9 80-431, looked up)
chain: GRALSAWVGYSVLGAVLDPTGKIVERFTPEVAPISEERVIDVAPPSYASRVGVREPLITGVRAIDGLLTCGVGQRMGIFASAGCGKTMLMHMLIEQTEADVFVIGLIGERGREVTEFVDMLRASHKKEKCVLVFATSDFPSVDRCNAAQLATTVAEYFRDQGKRVVLFIDSMTRYARALRDVALASGERPARRGYPASVFDNLPRLLERPGATSEGSITAFYTVLLESEEEADPMADEIRSILDGHLYLSRKLAGQGHYPAIDVLKSVSRVFGQVTTPTHAEQASAVRKLMTRLEELQLFIDLGEYRPGENIDNDRAMQMRDSLKAWLCQPVAQYSSFDDTLSGMNAFADQN
Broadly, the stoichiometry N is the number of molecules, sites or subunits per partner or assembly. Take B1: the “stoichiometry N” value amounted to 2.
